T1: Synechocystis OCP lacking the N-terminal extension, construct OCP_(13-317), holoprotein (Synechocystis sp. PCC 6803, UniProt P74102 13-317)
T1 sequence: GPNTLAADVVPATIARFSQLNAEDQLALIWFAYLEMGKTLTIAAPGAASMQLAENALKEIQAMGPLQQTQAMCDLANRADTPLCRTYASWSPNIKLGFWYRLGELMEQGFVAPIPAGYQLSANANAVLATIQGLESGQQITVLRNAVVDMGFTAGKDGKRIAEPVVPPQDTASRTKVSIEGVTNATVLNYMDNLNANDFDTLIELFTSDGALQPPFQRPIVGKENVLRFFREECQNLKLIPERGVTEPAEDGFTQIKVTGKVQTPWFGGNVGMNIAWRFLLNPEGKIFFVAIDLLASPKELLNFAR

B1: Arthrospira maxima FRP (natural protein)
chain: MSEINWSEQDKNAAVDALHKAYEREVKILIDEVKQKAFNLTEIDEVWKLHDFLSARRHDIDGKYDYRDAASVFVLATLVKQGWLSLEELQVLGQDKLAKISALTRL
B2: Synechocystis FRP (fluorescence recovery protein), wild-type construct with uncleavable N-terminal His6 tag and linker (natural protein)
chain: LQTAEAPWSQAETQSAHALFRKAYQRELDGLLATVQAQASQITQIDDLWKLHDFLSAKRHEIDGKYDDRQSVIIFVFAQLLKEGLVQAEELTFLAADKQSKIKALARL

Columns and labels:
[1] = molecular target: Truncated Synechocystis FRP spanning amino acids 8-109 (Synechocystis sp. PCC 6803); assay: SEC-MALS + other: SAXS
SAXS = molecular target: the molecule itself; assay: SAXS
[2] = molecular target: T1, Synechocystis OCP lacking the …; assay: SEC-MALS

Molecule	stoichiometry N [1]	stoichiometry N (SAXS)	stoichiometry N [2] [FRP per OCP]
Truncated Synechocystis FRP spanning amino acids 8-109 (domain or fragment)	2	–	–
B1	–	2	1
B2	–	–	2
